{"source": "patent US20140194361A1", "about": "(published 2014)", "target": "α5β1 integrin receptor on primary mesangial cells", "test": "cell-based or functional assay", "note": "No end group written: not given here."}
{"binder": "CGRGDSP (also: cyclic GRGDSP part, ring closure not given here)", "note": "[modified CGRGDSP peptide (D-peptide)]", "values": [{"measurement": "inhibition of MC adhesion to fibronectin-coated plates, enhanced potency of D- vs. E-control peptide compared to GRGDSP, at 200 µg/ml", "value": 2.4, "unit": "fold"}, {"measurement": "inhibition of MC adhesion to fibronectin-coated plates, enhanced potency of D- vs. E-control peptide compared to GRGDSP, at 400 µg/ml", "value": 2.8, "unit": "fold"}, {"measurement": "inhibition of mesangial cell binding to FN-coated plates, potency against GRGDSP", "value": "~3 fold more potent than GRGDSP"}]}
